“And” between values parts separate entries of the source, which are not always exact repeats. Equal entries are not always repeated. Blank lines part the entries; values can stand above or below the molecule they belong to.
Assays:
[1] = biological target: human LAG-3 protein with hFc tag (hLAG-3-hFc protein) (human) (UniProt P18627); test: FACS, blocks LAG-3-hFc binding to MHC II on Raji; 22.222 nM
[2] = biological target: monkey LAG-3 (full length, on the cell surface) (monkey); test: FACS, HEK293-cLAG-3; 40.000 nM
[3] = biological target: human LAG-3 (full length, on the cell surface) (human) (UniProt P18627); test: FACS, HEK293-hLAG-3; 8.000 nM
[4] = biological target: human LAG-3 protein with hFc tag (hLAG-3-hFc protein) (human) (UniProt P18627); test: FACS, blocks LAG-3-hFc binding to MHC II on Raji; 66.667 nM
[5] = biological target: human LAG-3 (full length, on the cell surface) (human) (UniProt P18627); test: FACS, HEK293-hLAG-3; 0.064 nM
[6] = biological target: human LAG-3 protein with hFc tag (hLAG-3-hFc protein) (human) (UniProt P18627); test: FACS, blocks LAG-3-hFc binding to MHC II on Raji; 0.000 nM
[7] = biological target: human LAG-3 protein with hFc tag (hLAG-3-hFc protein) (human) (UniProt P18627); test: FACS, blocks LAG-3-hFc binding to MHC II on Raji; 0.823 nM
[8] = biological target: monkey LAG-3 (full length, on the cell surface) (monkey); test: FACS, HEK293-cLAG-3; 0.320 nM
[9] = biological target: human LAG-3 protein with hFc tag (hLAG-3-hFc protein) (human) (UniProt P18627); test: FACS, blocks LAG-3-hFc binding to MHC II on Raji; 2.469 nM
[10] = biological target: monkey LAG-3 (full length, on the cell surface) (monkey); test: FACS, HEK293-cLAG-3; 1.600 nM
[11] = biological target: human LAG-3 (full length, on the cell surface) (human) (UniProt P18627); test: FACS, HEK293-hLAG-3; 0.320 nM
[12] = biological target: human LAG-3 (full length, on the cell surface) (human) (UniProt P18627); test: cell-based or functional assay
[13] = biological target: human LAG-3 protein with hFc tag (hLAG-3-hFc protein) (human) (UniProt P18627); test: FACS, blocks LAG-3-hFc binding to MHC II on Raji; 200.000 nM
[14] = biological target: human LAG-3 (full length, on the cell surface) (human) (UniProt P18627); test: FACS, HEK293-hLAG-3; 0.000 nM
[15] = biological target: human LAG-3 (full length, on the cell surface) (human) (UniProt P18627); test: FACS, HEK293-hLAG-3; 200.000 nM
[16] = biological target: human LAG-3 (full length, on the cell surface) (human) (UniProt P18627); test: FACS, HEK293-hLAG-3; 1.600 nM
[17] = biological target: monkey LAG-3 (full length, on the cell surface) (monkey); test: FACS, HEK293-cLAG-3; 0.000 nM
[18] = biological target: monkey LAG-3 (full length, on the cell surface) (monkey); test: FACS, HEK293-cLAG-3; 0.064 nM
[19] = biological target: human LAG-3 (full length, on the cell surface) (human) (UniProt P18627); test: FACS, HEK293-hLAG-3; 0.013 nM
[20] = biological target: human LAG-3 protein with hFc tag (hLAG-3-hFc protein) (human) (UniProt P18627); test: FACS, blocks LAG-3-hFc binding to MHC II on Raji; 7.407 nM
[21] = biological target: monkey LAG-3 (full length, on the cell surface) (monkey); test: FACS, HEK293-cLAG-3; 200.000 nM
[22] = biological target: human LAG-3 (full length, on the cell surface) (human) (UniProt P18627); test: FACS, HEK293-hLAG-3; 40.000 nM
[23] = biological target: monkey LAG-3 (full length, on the cell surface) (monkey); test: FACS, HEK293-cLAG-3; 8.000 nM
[24] = biological target: monkey LAG-3 (full length, on the cell surface) (monkey); test: FACS, HEK293-cLAG-3; 0.013 nM
[25] = biological target: human LAG-3 protein with hFc tag (hLAG-3-hFc protein) (human) (UniProt P18627); test: FACS, blocks LAG-3-hFc binding to MHC II on Raji; 0.274 nM
[26] = biological target: T1, human LAG-3 ECD (antigen protein of the affinity test) (human, UniProt P18627 23-450); test: SPR (CM5 chip), antibody captured by anti-human Fc IgG, antigen protein in flow, 1:1 model
T1 sequence: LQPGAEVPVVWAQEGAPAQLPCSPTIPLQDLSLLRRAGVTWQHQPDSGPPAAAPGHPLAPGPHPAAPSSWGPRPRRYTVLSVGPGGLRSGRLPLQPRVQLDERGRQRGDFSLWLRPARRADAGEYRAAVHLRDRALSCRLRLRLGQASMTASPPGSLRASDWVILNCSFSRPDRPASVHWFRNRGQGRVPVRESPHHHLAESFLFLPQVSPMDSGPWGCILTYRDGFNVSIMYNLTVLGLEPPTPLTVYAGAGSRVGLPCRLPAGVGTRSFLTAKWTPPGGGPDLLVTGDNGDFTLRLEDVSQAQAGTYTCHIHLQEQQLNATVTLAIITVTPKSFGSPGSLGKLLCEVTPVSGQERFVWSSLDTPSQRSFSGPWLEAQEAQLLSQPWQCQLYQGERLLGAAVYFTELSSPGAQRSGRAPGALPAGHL
Description: (§1) First, anti-human Fc IgG was immobilized on the surface of the CM5 chip to 6000-10000 RU by amino coupling method, with FC1 as the reference channel. The coupling process was as follows: a freshly prepared 1:1 mixture of 50 mM NHS and 200 mM EDC was activated for 7 minutes, then injected with 10-50 ug/ml anti-human Fc IgG diluted in 10 mM sodium acetate ph5.0 buffer. The remaining activated sites were blocked with 1M ethanolamine. Then, HBS-EP+ buffer was used to dilute the antibody to be tested to 5 ug/ml (adjustable according to the capture level) and the antibodies were captured on the chip at a flow rate of 10 ul/min to obtain a response value of about 100˜300 RU. Then the antigen protein was diluted to 100 nM (the highest concentration was tentatively 100 nM), and flew through the chip surface at a flow rate of 30 ul/min. If enough signal value was obtained, the antigen-protein was diluted by several concentration gradients, and flew through the chip surface respectively. At the end of each cycle, the chip surface was regenerated with 10 mM Glycine at pH 1.5. The kinetic rate constant needed to be subtracted from the blank control, and the data was fitted with the global fit analysis method 1:1 combination model. The dissociation equilibrium rate constant (KD) was calculated according to the following formula: KD=kd/ka.
(§2) The method was the same as that in Example 5.

[27] = biological target: T2, human LAG-3 ECD (antigen protein of the affinity test) (human, UniProt P18627 23-450); test: SPR, antibody captured by anti-human Fc IgG on CM5; ratio of KD values
T2 sequence: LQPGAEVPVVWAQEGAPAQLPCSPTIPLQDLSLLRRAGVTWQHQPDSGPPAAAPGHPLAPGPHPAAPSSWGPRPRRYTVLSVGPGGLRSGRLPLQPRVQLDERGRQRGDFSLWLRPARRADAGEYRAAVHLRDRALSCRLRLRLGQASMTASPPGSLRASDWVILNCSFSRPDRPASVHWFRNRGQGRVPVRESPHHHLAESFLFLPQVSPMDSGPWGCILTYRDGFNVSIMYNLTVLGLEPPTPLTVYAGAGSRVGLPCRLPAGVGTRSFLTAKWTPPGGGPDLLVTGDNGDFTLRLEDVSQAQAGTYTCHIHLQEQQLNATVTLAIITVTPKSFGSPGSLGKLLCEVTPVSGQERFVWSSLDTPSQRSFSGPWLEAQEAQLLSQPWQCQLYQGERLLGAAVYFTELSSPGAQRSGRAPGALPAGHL
Description: as §1, §2

monkey LAG-3 (full length, on the cell surface) (monkey), sequence (P18627 other isoform, or with tags, fused parts or gaps limits assumed): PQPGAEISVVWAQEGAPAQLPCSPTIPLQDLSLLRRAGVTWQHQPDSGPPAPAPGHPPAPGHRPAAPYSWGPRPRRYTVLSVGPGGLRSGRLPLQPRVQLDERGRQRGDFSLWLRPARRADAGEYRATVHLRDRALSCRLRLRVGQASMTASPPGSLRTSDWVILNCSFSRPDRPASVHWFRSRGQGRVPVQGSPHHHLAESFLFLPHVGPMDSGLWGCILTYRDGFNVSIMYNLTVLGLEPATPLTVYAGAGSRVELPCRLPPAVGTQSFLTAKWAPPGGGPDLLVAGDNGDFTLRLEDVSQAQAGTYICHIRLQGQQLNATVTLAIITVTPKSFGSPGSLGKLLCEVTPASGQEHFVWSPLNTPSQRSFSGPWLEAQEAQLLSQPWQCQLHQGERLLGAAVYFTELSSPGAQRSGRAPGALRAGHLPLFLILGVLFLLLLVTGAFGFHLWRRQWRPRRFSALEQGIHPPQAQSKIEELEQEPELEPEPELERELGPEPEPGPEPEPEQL
human LAG-3 (full length, on the cell surface) (human), sequence (P18627 23-525 limits assumed): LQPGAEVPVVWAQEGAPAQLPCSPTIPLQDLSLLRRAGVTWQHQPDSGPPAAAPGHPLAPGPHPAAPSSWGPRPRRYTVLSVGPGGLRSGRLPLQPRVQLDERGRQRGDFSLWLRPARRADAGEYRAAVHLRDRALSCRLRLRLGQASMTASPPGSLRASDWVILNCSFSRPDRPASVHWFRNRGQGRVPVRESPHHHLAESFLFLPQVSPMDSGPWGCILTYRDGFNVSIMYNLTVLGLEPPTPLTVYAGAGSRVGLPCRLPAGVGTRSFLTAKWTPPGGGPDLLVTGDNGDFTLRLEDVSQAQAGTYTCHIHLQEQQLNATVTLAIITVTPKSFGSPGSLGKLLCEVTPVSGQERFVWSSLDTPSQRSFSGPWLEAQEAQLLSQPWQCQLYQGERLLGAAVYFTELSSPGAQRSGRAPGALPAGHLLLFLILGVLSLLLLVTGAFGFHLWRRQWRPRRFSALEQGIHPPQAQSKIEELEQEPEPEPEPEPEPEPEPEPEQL

- Inhibition rate (%) [1]: 2.8% and 4.2%
- Mean fluorescence intensity [2]: 3.3 MFI and 4.1 MFI
- Mean fluorescence intensity [3]: 2.9 MFI and 3.9 MFI
- Inhibition rate (%) [4]: 6.7% and 7.4%
- Mean fluorescence intensity [5]: 2.9 MFI and 3.8 MFI
- Inhibition rate (%) [6]: 8.2% and -11.5%
- Inhibition rate (%) [7]: 13.8% and 4%
- Mean fluorescence intensity [8]: 3.3 MFI and 4 MFI
- Inhibition rate (%) [9]: 13.7% and 1.8%
- Mean fluorescence intensity [10]: 3.2 MFI and 4 MFI
- Mean fluorescence intensity [11]: 2.7 MFI and 3.8 MFI
- mIL-2 (pg/mL), antigen-specific T lymphocyte stimulation test; control IgG 0.016 ug/mL [12]: 177 pg/mL and 104 pg/mL
- mIL-2 (pg/mL), antigen-specific T lymphocyte stimulation test; control IgG 0.08 ug/mL [12]: 175 pg/mL and 89.2 pg/mL
- mIL-2 (pg/mL), antigen-specific T lymphocyte stimulation test; control IgG 2 ug/mL [12]: 174 pg/mL and 84.1 pg/mL
- mIL-2 (pg/mL), antigen-specific T lymphocyte stimulation test; control IgG 4 ug/mL (so in the source) [12]: 145 pg/mL and 84.2 pg/mL
- mIL-2 (pg/mL), antigen-specific T lymphocyte stimulation test; control IgG 10 ug/mL [12]: 169 pg/mL and 108 pg/mL
- Inhibition rate (%) [13]: 12.8% and -0.9%
- Mean fluorescence intensity [14]: 3 MFI and 3.8 MFI
- Mean fluorescence intensity [15]: 2.8 MFI and 4.2 MFI
- Mean fluorescence intensity [16]: 2.7 MFI and 3.9 MFI
- Mean fluorescence intensity [17]: 3.4 MFI and 4 MFI
- Mean fluorescence intensity [18]: 3.2 MFI and 4 MFI
- Mean fluorescence intensity [19]: 2.9 MFI and 3.8 MFI
- Inhibition rate (%) [20]: 3.4% and 2.8%
- Mean fluorescence intensity [21]: 3.6 MFI and 4.2 MFI
- Mean fluorescence intensity [22]: 2.8 MFI and 4 MFI
- Mean fluorescence intensity [23]: 3.3 MFI and 4.1 MFI
- Mean fluorescence intensity [24]: 3.5 MFI and 4 MFI
- Inhibition rate (%) [25]: 5.3% and -3.9%
Molecule: mIgG1 (murine IgG control) (antibody)

- Kd [26]: 33.5 nM
- koff [26]: 0.00384 s⁻¹
- kon [26]: 115000 M⁻¹ s⁻¹
B1: 556F6B8-3 (D→E) hot-spot mutated humanized antibody (antibody, V domains shown)
VH: QVQLQESGPGLVKPSETLSLTCTVSGFSLIKYGVHWIRQPPGKGLEWIGVIWRGGITDYNAAFMSRVTISKDTSKSQVSLKLSSVTAADTAVYYCARWEGPLAMDYWGQGTTVTVSS
VL: DIQLTQSPSFLSASVGDRVTITCKASQDVGTTVAWYQQKPGKAPKLLIYWASTRHTGVPSRFSGSGSGTEFTLTISSLQPEDFATYYCQQYSSYPYTFGQGTKLEIK

- fold reduction of affinity against the corresponding chimeric antibody [27]: 12.5 fold
B2: 556F6B8-3 (D→E) (humanized antibody with hot spot mutation) (antibody, human IgG4, V domains shown)
VH: QVQLQESGPGLVKPSETLSLTCTVSGFSLIKYGVHWIRQPPGKGLEWIGVIWRGGITDYNAAFMSRVTISKDTSKSQVSLKLSSVTAADTAVYYCARWEGPLAMDYWGQGTTVTVSS
VL: DIQLTQSPSFLSASVGDRVTITCKASQDVGTTVAWYQQKPGKAPKLLIYWASTRHTGVPSRFSGSGSGTEFTLTISSLQPEDFATYYCQQYSSYPYTFGQGTKLEIK
notes: made as the humanized antibodies (human IgG4 constant region); also called humanized antibody 556F6B8-3 with hot spot mutation

From patent US20210155689A1 (SHANGHAI PHARMAEXPLORER, published 2021)
